Laboratory results as given in US20110034670.

Test system: 4-(sulfamoyl)benzoyladenosine-pYEEI conjugate (9)

Substance: Src tyrosine kinase
- enhancement of catalytic activity and phosphorylation: enhanced the catalytic activity and phosphorylation by at least 40%
